Test results published in the supplement of paper PMC12764529.
± gives the half width of the 95% confidence interval.

Experiments:
[1] = folding stability dG unfold (combined trypsin and chymotrypsin); higher = more stable
How it was run: (§1)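 Sequencing followed digestion of designed mini-proteins with trypsin and chymotrypsin, each at 11 concentrations in threefold dilutions together with a no-protease condition. The mini-proteins were under 80 residues, had no cysteine, sat in a PA-tagged cDNA display construct, and were kept only if AlphaFold2 dimer inter-PAE was above 15. From the counts, Bayesian fitting gave K50, and unfolding free energy was derived against a sequence-predicted unfolded-state K50 and a shared folded-state K50, per protease or combined.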

[2] = folding stability dG unfold from chymotrypsin proteolysis; higher = more stable
How it was run: as §1

[3] = folding stability dG unfold from trypsin proteolysis; higher = more stable
How it was run: as §1

SAGGSAVIEFELELRTRPDGSVEEEEIIAEARELIEAIPEAENAEILEIRREAFPDGTVRYHVRVRVPSAGG [r13_462_TrMRF]
folding stability dG unfold [1]: 3.19 ± 0.072 kcal/mol | folding stability dG unfold [2]: 3.01 ± 0.036 kcal/mol | folding stability dG unfold [3]: 3.46 ± 0.072 kcal/mol

SAGGLIEAIKEAIDQAPPGDEEVTIPIRFPNGTFVIEIRREKDKYKIEIEMQNPNGQKQEITITIEVSAGGS [r16_642_TrROS]
folding stability dG unfold [1]: 1.65 ± 0.12 kcal/mol | folding stability dG unfold [2]: 1.69 ± 0.089 kcal/mol | folding stability dG unfold [3]: 1.43 ± 0.091 kcal/mol

SAGMIEITLYPPKAVVDVTVTIGGESESRTIPVDGKSKEEVIEEAREEVKAEYPDKAITTKVTEVPGDGSAG [r5_180_JUSTAS]
folding stability dG unfold [1]: 0.641 ± 0.071 kcal/mol | folding stability dG unfold [2]: 1.03 ± 0.098 kcal/mol | folding stability dG unfold [3]: -0.437 ± 0.18 kcal/mol

SAGGALKELPDGSVELYYNTETGLFTVRVRHPDKPPLVFTVESPEDALKFAKALEEKGIKIDKVVPAPSAGG [r13_727_TrMRF]
folding stability dG unfold [1]: 2.02 ± 0.14 kcal/mol | folding stability dG unfold [2]: 1.86 ± 0.065 kcal/mol | folding stability dG unfold [3]: 2.1 ± 0.068 kcal/mol

SLRDIAKEIAEKAGMDPEDVEINVETEPDPKNGKPRLRITVSIEHPNRKYMIKIDFQDGEIEEIMPLEDISA [r9_1219_TrROS]
folding stability dG unfold [1]: 1.74 ± 0.3 kcal/mol | folding stability dG unfold [2]: 1.97 ± 0.089 kcal/mol | folding stability dG unfold [3]: 1.66 ± 0.099 kcal/mol

SAGGSAGGSAKKKVEIKIEIEEVTNKDGKKYIKIKIEVKVSEEVKKELADALKKAGFKVEPSAGGSAGGSAG [r3_157_TrROS_Hall]
folding stability dG unfold [1]: 2.17 ± 0.16 kcal/mol | folding stability dG unfold [2]: 2.43 ± 0.093 kcal/mol | folding stability dG unfold [3]: 1.54 ± 0.091 kcal/mol

SAGGSMNPYSETITVNLPVPTPSGGSVVRPVTVPISIVYEDEKELEEALKKAKEEAEAAARKALGLESAGGS [r16_339_JUSTAS]
folding stability dG unfold [1]: 1.05 ± 0.11 kcal/mol | folding stability dG unfold [2]: 0.685 ± 0.069 kcal/mol | folding stability dG unfold [3]: 1.37 ± 0.067 kcal/mol

SAGGSAKEWVWVISIKYRYPNGEPLAPIPIMIPPDDPEIDIDEIADEIARKHGLDEIEVNIHPIPVSAGGSA [r15_333_TrROS]
folding stability dG unfold [1]: 1.9 ± 0.14 kcal/mol | folding stability dG unfold [2]: 2.03 ± 0.12 kcal/mol | folding stability dG unfold [3]: 1.59 ± 0.052 kcal/mol

SAGGSAGGEKGYKLVEITIPVTVYHGNKPYTIPIPIKVKSPEEVEKLKKFIENTSYDPTSGKFSSAGGSAGG [r6_197_TrMRF]
folding stability dG unfold [1]: 1.02 ± 0.13 kcal/mol | folding stability dG unfold [2]: 1.28 ± 0.24 kcal/mol | folding stability dG unfold [3]: 0.607 ± 0.1 kcal/mol

SAEELAEAEARRLGVDPAAVALEVTEEVDPLTGKPRKIVTVTIALPDRAYVITVDASDGTVLERRPLEAASA [r9_1219_JUSTAS]
folding stability dG unfold [1]: 2.28 ± 0.081 kcal/mol | folding stability dG unfold [2]: 2.15 ± 0.034 kcal/mol | folding stability dG unfold [3]: 2.33 ± 0.051 kcal/mol

SAGGSAGGPFVLKFPDPKNMNKLQEAASDHGMNMNRNPEKGTHVINFGGNMLDELQELPGIEIVSAGGSAGG [r6_726_TrROS]
folding stability dG unfold [1]: -0.769 ± 0.24 kcal/mol | folding stability dG unfold [2]: -1.1 ± 0.61 kcal/mol | folding stability dG unfold [3]: -1.05 ± 0.15 kcal/mol

SAGGWEIVGSITIEHPNRPIIFPVFRDPEEGNVWVSIYRMDPENGKWQPIGVVPFPKGDAEDALDDISAGGS [r8_423_TrROS]
folding stability dG unfold [1]: 1.53 ± 0.16 kcal/mol | folding stability dG unfold [2]: 1.86 ± 0.11 kcal/mol | folding stability dG unfold [3]: 1.03 ± 0.054 kcal/mol

SAGMTIKIKNKKTNKVITIERRPDGTTVKVKVYDKNGKLVKTYPEGMTLEELLKKFPNAKVEVVEVEKPSAG [r5_314_TrROS_Hall]
folding stability dG unfold [1]: 1.14 ± 0.07 kcal/mol | folding stability dG unfold [2]: 0.559 ± 0.11 kcal/mol | folding stability dG unfold [3]: 1.47 ± 0.033 kcal/mol

SAGGSAGGSAGGSKYEIEILKIEELEDDSYRITAKINIPEAGTTEEITLTVPKGVELKLSAGGSAGGSAGGS [r4_133_TrMRF]
folding stability dG unfold [1]: 1.23 ± 0.072 kcal/mol | folding stability dG unfold [2]: 1.21 ± 0.062 kcal/mol | folding stability dG unfold [3]: 1.21 ± 0.017 kcal/mol

SAGGSASMSKTTTETSPDSETTTTTYYPNGTVTTTKTTTVGEGTTTTTTTTKVLFIPGPGVLVPEPSAGGSA [r15_746_JUSTAS]
folding stability dG unfold [1]: 0.259 ± 0.046 kcal/mol | folding stability dG unfold [2]: 0.514 ± 0.062 kcal/mol | folding stability dG unfold [3]: -0.174 ± 0.045 kcal/mol

SAGGSAGGSAGGKKLTFKAEIVSEEEIEINGKKYRIFKVKVTLPDGSKLTLTVIVELDDLSAGGSAGGSAGG [r7_846_TrROS_Hall]
folding stability dG unfold [1]: 3.84 ± 0.096 kcal/mol | folding stability dG unfold [2]: 4.22 ± 0.056 kcal/mol | folding stability dG unfold [3]: 2.83 ± 0.036 kcal/mol

SAGGSAGGSASMGVVDEFVVYVPGEKGEEVEVKVYKDPNSDRYIVEIKGKKIPVTDEKKALLSAGGSAGGSA [r18_67_JUSTAS]
folding stability dG unfold [1]: 0.447 ± 0.26 kcal/mol | folding stability dG unfold [2]: 0.0997 ± 0.33 kcal/mol | folding stability dG unfold [3]: 0.41 ± 0.068 kcal/mol
